Data on three compounds can be found in publication PMC4734687, “Peptide-Based Optical uPAR Imaging for Surgery: In Vivo Testing of ICG-Glu-Glu-AE105” (PLoS ONE, 2016).

For one series, the system named is nude NMRI mice. The series is described as follows: Observation of adverse effects in imaged mice. The format is in vivo, mouse. The settings on record: 10 nmol i.v., nude NMRI mice with U87MG xenografts, n = 5 per group. Here is the method:
(§1) 10 nmol of ICG-Glu-Glu-AE105 or ICG were administered to 5 mice each via tail vein injections. 15 h post injection the mice were anaesthetized with 2% isoflurane a full-body optical scan recorded using the acquisition mode outlined above.

The subject of series [1] is U87MG human glioblastoma xenograft tumors. The experiment in a line: Optical imaging of U87MG xenograft mice 15 h post injection (tumour to background ratio). Format: in vivo, mouse. The settings on record: IVIS Lumina XR, 15 h post i.v. injection of 10 nmol; for Uptake in the tumor (in words): U87MG xenograft mice, n = 5. Here is the method:
All animal experiments were performed under a protocol approved by the Animal Research Committee of the Danish Ministry of Justice (2012-15-2934-00064). 5 ×10^6 U87MG cells were suspended in 200 ul PBS and inoculated in both flanks of 6 weeks old nude NMRI female mice (24–28 g; Taconic Europe, Lille Skensved, Denmark). All mice were housed in groups with 12 h light/dark cycle and food and water was available ad libitum. When the tumours reached approx. 500 mm^3 in size the mice were enrolled in the optical imaging protocol.
as §1
After imaging with IVIS Lumina XR the anesthetized mice were moved to a surgical table and real-time tumor imaging with a Fluobeam®800 NIR-camera was performed (Fluoptics, Grenoble, France). The camera was connected to a standard laptop to allow imaging, adjustments of camera functions and recording of images and video sequences. Fluobeam®800 works with a 800 nm excitation laser optimised for ICG imaging.
The TBR values were calculated as tumor-signal divided by background-signal by drawing a ROI over each tumor and place the background ROI in an area with constant background signal. Images from IVIS Lumina XR were processed in the software Living Image, while the images from Fluobeam®800 was processed in ImageJ.

Another series deals with uPAR (Homo sapiens, UniProt Q03405). The experiment in a line: Surface plasmon resonance solution competition of the uPA•uPAR interaction (Biacore3000). Conditions: indirect solution competition for uPA binding, purified uPAR, non-linear regression, read-out: IC50 as competitive inhibitor of the uPA•uPAR interaction. As to the method:
The IC50-value for ICG-Glu-GLU-AE105 as competitive inhibitor of the uPA•uPAR interaction was measured by surface plasmon resonance in a Biacore3000 assay platform as previously published. Subsequent fitting to the binding isotherms by non-linear regression provided the IC50-value.

Series [2] has as its target T1, human uPAR in U87MG tumor tissue sections (Homo sapiens, UniProt Q03405).
T1 construct: Ex Vivo histology and fluorescence images of s.c. U87MG tumor tissue sections; from tissue; host or cells: s.c. U87MG human glioblastoma xenograft tumors grown in mice
The experiment in a line: Ex vivo fluorescent imaging and uPAR immunohistochemistry of tumor sections. The settings on record: 4 μm paraffin tumor sections, Odyssey scanner 800 nm, antibody R2 against uPAR. Here is the method: Tissue was formalin fixed in 4% formaldehyde in 24 h and then embedded in paraffin. For all stainings a 4 μm slice tissue were used. Before any staining the sliced tissue were imaged with an Odyssey scanner (LI-COR Biosciences, Lincoln, Nebraska) at 800 nm.
The tissue was incubated for one hour at 60° before being deparaffinized. Thereafter, tissue was pre-treated with proteinase K (Dako, Glostrup, Denmark) for 6 min. The staining was performed with the Dako ARK kit, with the antibody R2 [24] against uPAR.

Series [3] is described as follows: In vitro comparison of fluorescence intensity of ICG and conjugated probe. The format is physicochemical. As to the method:
The UV-vis absorption spectra were recorded on a Perkin-Elmer Lambda 1050 UV/vis/NIR spectrometer double beam spectrometer using the HBC solvent as baseline. The spectra were recorded in 1 cm path length cuvettes with ICG and ICG-AE105 present in the 10–50 μM range. Excitation and emission spectra and lifetimes were measured using FluoroTime 300 (PicoQuant, Berlin, Germany) system. The spectra were measured through excitation at 725 nm using a Xe-lamp excitation source. The excitation and emission measurements were measured in 1 cm cuvettes at 90° with respect to the excitation light. In the fluorescence measurements the absorbance of the samples were below 0.1 at the maximum of the lowest energy absorption band to avoid inner filter effects. After each fluorescence measurement the absorption spectra were recorded in order to verify that no photobleaching of the sample had occurred during the fluorescence measurement. All excitation and fluorescence spectra were corrected for the wavelength-dependent sensitivity of the detection from 500–900 nm.

The nature of series [4]: Plasma stability of ICG-Glu-Glu-AE105 by HPLC. Format: in vitro ADME. The settings on record: mouse plasma 150 μl, 5 μg in DMSO, 37°C, acetonitrile precipitation, HPLC absorbance area at 780 nm. Here is the method: ICG-AE105 (5 μg in DMSO) was added to 150 μl mouse plasma and the solution was incubated at 37°C for either 0, 1, 5 or 30 minutes. After incubation, acetonitrile (200 μl) was added followed by centrifugation at 3500 rpm for 4 minutes. The supernatant was collected, diluted and passed through a 0.45 μm filter. The filtered solution was analyzed on a Dionex UltiMate 300 HPLC using an Onyx Monolithic column (Phenomenex, 50x4.6 mm) and with a flow of 1.5 ml/min. The HPLC mobile phase was 0.1% TFA in H2O:MeCN 90:10 (A) and 0.1% TFA in H2O:MeCN 10:90 (B) and the gradient program: 0–2 min 10% B, 2–20 min 10–100% B, 20–21 100% B, 21–23 min 100–10%B, 23–30 min 10% B.
Each plasma sample was analyzed by HPLC and the absorbance area at 780 nm was calculated. This value was compared to the standard sample and the plasma sample at 0 min to calculated the percentage of intact ICG-AE105 recovered in the supernatant (see Table 1).

Series [5] addresses Urokinase-type plasminogen activator receptor (uPAR) (human) (UniProt Q03405).

T1 sequence (Q03405 23-335): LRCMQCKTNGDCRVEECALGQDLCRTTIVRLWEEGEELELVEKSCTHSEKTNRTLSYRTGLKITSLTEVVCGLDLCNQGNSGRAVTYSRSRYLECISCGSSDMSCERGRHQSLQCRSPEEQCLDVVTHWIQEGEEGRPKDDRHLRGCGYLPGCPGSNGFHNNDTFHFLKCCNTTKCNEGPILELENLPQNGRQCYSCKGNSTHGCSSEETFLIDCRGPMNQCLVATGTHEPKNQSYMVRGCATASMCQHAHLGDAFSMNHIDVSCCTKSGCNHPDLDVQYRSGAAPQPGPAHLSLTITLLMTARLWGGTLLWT
Urokinase-type plasminogen activator receptor (uPAR) (human), sequence (Q03405 23-305): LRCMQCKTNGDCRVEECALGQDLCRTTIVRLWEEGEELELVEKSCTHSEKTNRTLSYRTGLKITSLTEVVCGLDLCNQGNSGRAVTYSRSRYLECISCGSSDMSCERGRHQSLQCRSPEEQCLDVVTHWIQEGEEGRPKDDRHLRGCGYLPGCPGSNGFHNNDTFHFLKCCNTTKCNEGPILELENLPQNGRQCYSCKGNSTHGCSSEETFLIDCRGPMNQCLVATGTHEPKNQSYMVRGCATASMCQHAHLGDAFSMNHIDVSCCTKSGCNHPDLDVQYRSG

Regarding `CC1(C)C(/C=C/C=C/C=C/C=C2\N(CCCCS(=O)(=O)O)c3ccc4ccccc4c3C2(C)C)=[N+](CCCCS(=O)(=O)[O-])c2ccc3ccccc3c21` [ICG, indocyanine green], the “Adverse effects observed in mice” value with nude NMRI mice is “No adverse effects”. For the same compound, the “Tumour to background ratio (TBR)” value in series [1] (U87MG s.c. xenograft mice, n = 5 mice (n = 10 tumors), mean) is 1.04±0.04. The “Uptake in the tumor (in words)” value in series [1] is “No uptake”.

`CC(C)C[C@H](NC(=O)[C@H](Cc1ccc(O)cc1)NC(=O)[C@@H](CCCNC(=N)N)NC(=O)[C@@H](CO)NC(=O)[C@H](Cc1ccccc1)NC(=O)[C@H](CC1CCCCC1)NC(=O)[C@H](CC(=O)O)NC(=O)[C@H](CCC(=O)O)NC(=O)[C@H](CCC(=O)O)NC(=O)CCCCC[N+]1=C(C=CC=CC=CC=C2N(CCCCS(=O)(=O)[O-])c3ccc4ccccc4c3C2(C)C)C(C)(C)c2c1ccc1ccccc21)C(=O)N[C@@H](Cc1c[nH]c2ccccc12)C(=O)N[C@@H](CO)C(=O)O` [ICG-Glu-Glu-AE105]: the half-inhibitory concentration (IC50) at uPAR is 134 nM. Further, the “Adverse effects observed in mice” value with nude NMRI mice is “No adverse effects”. In addition, the “Uptake in the tumor (in words)” value in series [1] is reported as “high uptake”. In addition, the “Co-localization of probe fluorescence with uPAR immunohistochemistry staining” value in series [2] is “co-localization of the uPAR staining and the fluorescent probe signal was observed”. The “Decrease in fluorescence intensity of conjugated probe compared with ICG” value in series [3] is on record as 2 fold. The “Intact ICG-AE105 recovered from supernatant (%) Compared to standard” value was 97,2% in series [4] (0 min incubation); 92.3% in series [4] (1 min incubation); 92,3% in series [4] (1 min incubation, listed as ICG-AE105); 86.7% in series [4] (5 min incubation); 86,7% in series [4] (5 min incubation, listed as ICG-AE105); 81.7% in series [4] (30 min incubation). Also, the “Intact ICG-AE105 recovered from supernatant (%) Compared to standard” value in series [4] (30 min incubation, listed as ICG-AE105) is given as 81,7%. For the same compound, the remaining at 1 min, 33 µg/mL in series [4] (1 min incubation, read-out: Intact ICG-AE105 recovered from supernatant (%) Compared to plasma sample at 0 min) was determined as 95%. The “Intact ICG-AE105 recovered from supernatant (%) Compared to plasma sample at 0 min” value is 89,3% in series [4] (5 min incubation) and 84,1% in series [4] (30 min incubation).

ICG-Glu-Glu-AE105 (peptide): in series [5], the mean decrease of the max fluorescence signal of the xenograft tumours when 6.7 nmol uPA is injected together with 10 nmol probe, against probe alone was found to be 46.8%.
